Reference: article PMC6210165, “Structure-Based Engineering of Phanerochaete chrysosporium Alcohol Oxidase for Enhanced Oxidative Power toward Glycerol” (Biochemistry, 2018)
Where a chain is given by its changes, count along the chain named. Numbers in names are those of the source.

How the values were obtained:
Conditions in all cases: 50 mM potassium phosphate pH 7.5, 25 °C, co-substrate O2, fit errors ≤11%
purified protein = substrate: CCO; assay: purified protein
[1] = substrate: CCCO; assay: HRP-coupled H2O2 assay, steady-state kinetics; type: biochemical, Phanerodontia chrysosporium
From the text: (§1) HRP-coupled H2O2 assay, steady-state kinetics on PcAOX (His-SUMO-PcAOX)

[2] = substrate: CO; assay: HRP-coupled H2O2 assay, steady-state kinetics; type: biochemical, Phanerodontia chrysosporium
From the text: as §1

B1: PcAOX (His-SUMO-PcAOX) (Phanerodontia chrysosporium) (protein)
chain: MGHPEEVDVIVCGGGPAGCVVAGRLAYADPTLKVMLIEGGANNRDDPWVYRPGIYVRNMQRNGINDKATFYTDTMASSYLRGRRSIVPCANILGGGSSINFQMYTRASASDWDDFKTEGWTCKDLLPLMKRLENYQKPCNNDTHGYDGPIAISNGGQIMPVAQDFLRAAHAIGVPYSDDIQDLTTAHGAEIWAKYINRHTGRRSDAATAYVHSVMDVQDNLFLRCNARVSRVLFDDNNKAVGVAYVPSRNRTHGGKLHETIVKARKMVVLSSGTLGTPQILERSGVGNGELLRQLGIKIVSDLPGVGEQYQDHYTTLSIYRVSNESITTDDFLRGVKDVQRELFTEWEVSPEKARLSSNAIDAGFKIRPTEEELKEMGPEFNELWNRYFKDKPDKPVMFGSIVAGAYADHTLLPPGKYITMFQYLEYPASRGKIHIKSQNPYVEPFFDSGFMNNKADFAPIRWSYKKTREVARRMDAFRGELTSHHPRFHPASPAACKDIDIETAKQIYPDGLTVGIHMGSWHQPSEPYKHDKVIEDIPYTEEDDKAIDDWVADHVETTWHSLGTCAMKPREQGGVVDKRLNVYGTQNLKCVDLSICPDNLGTNTYSSALLVGEKGADLIAEELGLKIKTPHAPVPHAPVPTGRPATQQVR
notes: codon-optimized, E. coli BL21(DE3); N-terminal His-SUMO fusion kept for all kinetics, tag cleaved for crystals; homo-octamer with FAD; residues 2-645 seen in structure
**Q.** What does the source list for B1?
**A.** Km (purified protein): 15 mM; kcat (purified protein): 19 s⁻¹; kcat/Km (purified protein): 1300 M⁻¹ s⁻¹; Km [1]: 45 mM; kcat [1]: 11 s⁻¹; kcat/Km [1]: 240 M⁻¹ s⁻¹; Km [2]: 2 mM; kcat [2]: 18 s⁻¹; kcat/Km [2]: 9000 M⁻¹ s⁻¹

B2: PcAOX (His-SUMO-PcAOX) (Phanerodontia chrysosporium; F101S) (protein)
chain: B1 chain with F101S
notes: as for B1
**Q.** Which results are given for B2?
**A.** Km (purified protein): 1 mM; kcat (purified protein): 5 s⁻¹; kcat/Km (purified protein): 5000 M⁻¹ s⁻¹; Km [1]: 4 mM; kcat [1]: 7 s⁻¹; kcat/Km [1]: 1800 M⁻¹ s⁻¹; Km [2]: 2 mM; kcat [2]: 18 s⁻¹; kcat/Km [2]: 9000 M⁻¹ s⁻¹

B3: PcAOX (His-SUMO-PcAOX) (Phanerodontia chrysosporium; F101N) (protein)
chain: B1 chain with F101N
notes: as for B1
**Q.** How did the Km (purified protein) turn out when B3 was run?
**A.** Its Km is 11 mM.

**Q.** And the kcat (purified protein)?
**A.** Its kcat is 10 s⁻¹.

**Q.** And the kcat/Km (purified protein)?
**A.** Its kcat/Km is 910 M⁻¹ s⁻¹.

**Q.** What about the Km [1] of the same protein?
**A.** The Km was 11 mM.

**Q.** And the kcat [1]?
**A.** Its kcat is 12 s⁻¹.

**Q.** What about the kcat/Km [1] of the same protein?
**A.** The kcat/Km was 1100 M⁻¹ s⁻¹.

**Q.** And the Km [2]?
**A.** The Km was 14 mM.

**Q.** What about the kcat [2] of the same protein?
**A.** The kcat was 10 s⁻¹.

**Q.** What about the kcat/Km [2] of the same protein?
**A.** The kcat/Km was 710 M⁻¹ s⁻¹.
